Test results as given in patent US20040092720A1 (US Dept. of Health and Human Services, published 2004).

Target: T1, recombinant human IL-6 (human, UniProt P05231 30-212, labeled with radioactive iodine)
T1 construct: Labeled probe in solution, added to wells that carry the synthetic peptides; also called IL-6 ligand; Interleukin-6
Assay: radioiodinated IL-6 on peptide array

| Binder | Counts/minute bound |
| --- | --- |
| IRNYTIFYRTIIGNETAVNVDSSH [Peptide E56] | 1640 counts/minute |
| TVRNLVGKSDAAVLTIPACDFQAT [Peptide E41] | 1100 counts/minute |
| TVNATKLTVNLTNDRYLATLTVRN [Peptide E39] | 4360 counts/minute |
| TRWKSHLQNYTVNATKLTVNLTND [Peptide E38] | 3650 counts/minute |
| QQEDGTVHRTYLRGNLAESKCYLI [Peptide E48] | 1080 counts/minute |
| VEWTTPRESVKKYILEWCVLSDKA [Peptide E45] | 1390 counts/minute |
| GKNEAVLEWDQLPVDVQNGFIRNY [Peptide E54] | 1310 counts/minute |
| ADGPGSPESIKAYLKQAPPSKGPT [Peptide E51] | 1190 counts/minute |
| WKTLPPFEANGKILDYEVTLTRWK [Peptide E36] | 1460 counts/minute |
| KAYLKQAPPSKGPTVRTKKVGKNE [Peptide E52] | 1820 counts/minute |
| FQATHPVMDLKAFPKDNMLWVEWT [Peptide E43] | 1300 counts/minute |
| PKFAQGEIEAIVVPVCLAFLLTTL [Peptide E62] | 2790 counts/minute |
| AAVLTIPACDFQATHPVMDLKAFP [Peptide E42] | 1120 counts/minute |
| GKILDYEVTLTRWKSHLQNYTVNA [Peptide E37] | 1790 counts/minute |
| KDGPEFTFTTPKFAQGEIEAIVVP [Peptide E61] | 1390 counts/minute |
| IIGNETAVNVDSSHTEYTLSSLTS [Peptide E57] | 1230 counts/minute |
| KGPTVRTKKVGKNEAVLEWDQLPV [Peptide E53] | 1640 counts/minute |
| KKYILEWCVLSDKAPCITDWQQED [Peptide E46] | 1710 counts/minute |
| YLRGNLAESKCYLITVTPVYADGP [Peptide E49] | 1540 counts/minute |
| LTNDRYLATLTVRNLVGKSDAAVL [Peptide E40] | 4800 counts/minute |
| QLPVDVQNGFIRNYTIFYRTIIGN [Peptide E55] | 4360 counts/minute |
| CYLITVTPVYADGPGSPESIKAYL [Peptide E50] | 1260 counts/minute |
| TQGYRTVQLVWKTLPPFEANGKIL [Peptide E35] | 1170 counts/minute |
| KAFPKDNMLWVEWTTPRESVKKYI [Peptide E44] | 1180 counts/minute |
| DSSHTEYTLSSLTSDTLYMVRMAA [Peptide E58] | 1350 counts/minute |
| RMAAYTDEGGKDGPEFTFTTPKFA [Peptide E60] | 1450 counts/minute |
